Test results reported in patent publication US20060140858A1, “Drug pre-targeting by means of bi-specific antibodies and hapten constructs comprising a carrier peptide and the active agent(s)” (Immunomedics, Inc., priority 2002, published 2006).
Values belong to the compound of their own block, whether it stands above or below them. Where a SMILES comes first, the peptide text is derived from it. The star is where a group is joined. DTPA = O=C(O)CN(CCN(CC(=O)O)CC(=O)O)CCN(CC(=O)O)CC(=O)*

Columns and labels:
[1] = Pretargeting: I-125 F6 × 734-F(ab′)2, 72 h later In-111-IMP-225, biodistribution; details: female, mouse, in vivo, 10 uCi, total radioactivity, % ID/g tissue
[2] = Pretargeting: 125-I-hMN-14 × 734 bsAb, 48 h later 111-In-indium-IMP-156, biodistribution; assay type: in vivo, nude mice; details: female, nude (Taconic NCRNU), mouse, 3 h post peptide
GW-39 tumor xenografts [3] = test: as above; assay type: in vivo, nude mice; details: 3 h post peptide
[4] = Control group: clearance of 111-In-indium-IMP-156 alone; assay type: in vivo, nude mice; details: female, NCRNU nude, mouse, total radioactivity
GW-39 tumor xenografts [5] = test: as above; assay type: in vivo, nude mice; details: 3 h

SMILES: COc1cccc2c1C(=O)c1c(O)c3c(c(O)c1C2=O)C[C@@](O)(C(=O)CO)C[C@@H]3O[C@H]1C[C@H](NC(=O)CSC[C@H](NC(C)=O)C(=O)N[C@@H](CCCCNC(=O)CN(CCN(CCN(CC(=O)O)CC(=O)O)CC(=O)O)CC(=O)O)C(=O)N[C@@H](Cc2ccc(O)cc2)C(=O)N[C@@H](CCCCNC(=O)CN(CCN(CCN(CC(=O)O)CC(=O)O)CC(=O)O)CC(=O)O)C(N)=O)[C@H](O)[C@H](C)O1 [IMP 225]
tissue uptake at 1 h ([1]; NCRNU nude, Spleen, 1 h): 1.6 ± 2.4 %ID/g | tissue uptake at 1 h ([1]; nude (Taconic NCRNU), Blood, 1 h): 2 ± 0.4 %ID/g | tissue uptake at 4 h ([1]; nude (Taconic NCRNU), Blood, 4 h): 1.3 ± 0.2 %ID/g | tissue uptake at 24 h ([1]; nude (Taconic NCRNU), Blood, 24 h): 0.4 ± 0.2 %ID/g | tissue uptake at 1 h ([1]; nude (Taconic NCRNU), GW-39, 1 h): 14.6 ± 14 %ID/g | tissue uptake at 4 h ([1]; nude (Taconic NCRNU), GW-39, 4 h): 16.5 ± 4.8 %ID/g | tissue uptake at 24 h ([1]; nude (Taconic NCRNU), GW-39, 24 h): 10.1 ± 2.3 %ID/g | tissue uptake at 1 h ([1]; nude (Taconic NCRNU), Kidney, 1 h): 3.8 ± 0.9 %ID/g | tissue uptake at 4 h ([1]; nude (Taconic NCRNU), Kidney, 4 h): 3.8 ± 0.4 %ID/g | tissue uptake at 24 h ([1]; nude (Taconic NCRNU), Kidney, 24 h): 1.7 ± 0.3 %ID/g | tissue uptake at 1 h ([1]; nude (Taconic NCRNU), Large Int., 1 h): 0.2 %ID/g | tissue uptake at 4 h ([1]; nude (Taconic NCRNU), Large Int., 4 h): 0.3 ± 0.1 %ID/g | tissue uptake at 24 h ([1]; nude (Taconic NCRNU), Large Int., 24 h): 0.1 %ID/g | tissue uptake at 1 h ([1]; nude (Taconic NCRNU), Liver, 1 h): 0.4 ± 0.2 %ID/g | tissue uptake at 4 h ([1]; nude (Taconic NCRNU), Liver, 4 h): 0.4 ± 0.1 %ID/g | tissue uptake at 24 h ([1]; nude (Taconic NCRNU), Liver, 24 h): 0.3 ± 0.1 %ID/g | tissue uptake at 1 h ([1]; nude (Taconic NCRNU), Lungs, 1 h): 0.8 ± 0.4 %ID/g | tissue uptake at 4 h ([1]; nude (Taconic NCRNU), Lungs, 4 h): 0.6 ± 0.1 %ID/g | tissue uptake at 24 h ([1]; nude (Taconic NCRNU), Lungs, 24 h): 0.2 ± 0.1 %ID/g | tissue uptake at 1 h ([1]; nude (Taconic NCRNU), Muscle, 1 h): 0.3 ± 0.2 %ID/g | tissue uptake at 4 h ([1]; nude (Taconic NCRNU), Muscle, 4 h): 0.2 %ID/g | tissue uptake at 24 h ([1]; nude (Taconic NCRNU), Muscle, 24 h): 0.1 %ID/g | tissue uptake at 1 h ([1]; nude (Taconic NCRNU), Small Int., 1 h): 0.4 ± 0.1 %ID/g | tissue uptake at 4 h ([1]; nude (Taconic NCRNU), Small Int., 4 h): 0.3 ± 0.2 %ID/g | tissue uptake at 24 h ([1]; nude (Taconic NCRNU), Small Int., 24 h): 0.1 %ID/g | tissue uptake at 4 h ([1]; nude (Taconic NCRNU), Spleen, 4 h): 0.4 ± 0.1 %ID/g | tissue uptake at 24 h ([1]; nude (Taconic NCRNU), Spleen, 24 h): 0.4 ± 0.1 %ID/g | tissue uptake at 1 h ([1]; nude (Taconic NCRNU), Stomach, 1 h): 1.1 ± 0.9 %ID/g | tissue uptake at 4 h ([1]; nude (Taconic NCRNU), Stomach, 4 h): 0.4 ± 0.2 %ID/g | tissue uptake at 24 h ([1]; nude (Taconic NCRNU), Stomach, 24 h): 0.1 %ID/g | tissue uptake at 1 h ([1]; nude (Taconic NCRNU), Tail, 1 h): 1.2 ± 0.1 %ID/g | tissue uptake at 4 h ([1]; nude (Taconic NCRNU), Tail, 4 h): 0.8 ± 0.2 %ID/g | tissue uptake at 24 h ([1]; nude (Taconic NCRNU), Tail, 24 h): 0.5 ± 0.7 %ID/g

tissue uptake at 3 h ([2]; Blood): 0.7 ± 0.2 %ID/g | tissue uptake at 3 h ([2]; Kidney): 1.9 ± 0.5 %ID/g | tissue uptake at 3 h ([2]; Lungs): 0.4 ± 0.1 %ID/g | tissue uptake at 3 h ([2]; tumor): 52 ± 1.9 %ID/g | T/NT (GW-39 tumor xenografts [3]; Blood): 7.6 ± 1.5 | T/NT (GW-39 tumor xenografts [3]; Kidney): 2.6 ± 0.5 | T/NT (GW-39 tumor xenografts [3]; Liver): 10.6 ± 3.5 | T/NT (GW-39 tumor xenografts [3]; Lungs): 12 ± 2 | T/NT (GW-39 tumor xenografts [3]; Spleen): 12 ± 6 | T/NT (GW-39 tumor xenografts [3]; tumor): 1 | tissue uptake at 3 h ([4]; Blood): 0.05 ± 0.01 %ID/g | tissue uptake at 3 h ([4]; Kidney): 0.93 ± 0.13 %ID/g | tissue uptake at 3 h ([4]; Liver): 0.42 ± 0.1 %ID/g | tissue uptake at 3 h ([4]; Lungs): 0.04 ± 0.01 %ID/g | tissue uptake at 3 h ([4]; Spleen): 0.28 ± 0.09 %ID/g | tissue uptake at 3 h ([4]; Tumor): 0.14 ± 0.02 %ID/g | T/NT (GW-39 tumor xenografts [5]; Blood): 3.1 ± 0.7 | T/NT (GW-39 tumor xenografts [5]; Kidney): 0.2 ± 0.03 | T/NT (GW-39 tumor xenografts [5]; Liver): 0.3 ± 0.1 | T/NT (GW-39 tumor xenografts [5]; Lungs): 3.5 ± 0.7 | T/NT (GW-39 tumor xenografts [5]; Spleen): 0.5 ± 0.1 | T/NT (GW-39 tumor xenografts [5]; Tumor): 1
SMILES: CC(=O)N[C@@H](Cc1ccccc1)C(=O)N[C@@H](CCCCNC(=O)CN(CCN(CCN(CC(=O)O)CC(=O)O)CC(=O)O)CC(=O)O)C(=O)N[C@@H](Cc1ccc(O)cc1)C(=O)N[C@@H](CCCCNC(=O)CN(CCN(CCN(CC(=O)O)CC(=O)O)CC(=O)O)CC(=O)O)C(N)=O [IMP 156, Ac-Phe-Lys(DTPA)-Tyr-Lys(DTPA)-NH2] (Ac-FK(DTPA)YK(DTPA)-NH2)
